Source: paper PMC8207647

How the values were obtained:
Experiment in all cases: purified protein
Conditions in all cases: O2 co-substrate, pH 7.5 sodium phosphate 50 mM, 35 °C
[1] = system: O=C(O)c1ccc(CO)o1
[2] = system: O=Cc1ccc(C=O)o1
[3] = system: O=Cc1ccc(CO)o1
[4] = system: COc1ccc(CO)cc1OC

“FoxAAO (Fusarium oxysporum f. sp. lycopersici 4287)” gave a Km [1] of 3.1 ± 0.31 mM, a kcat [1] of 5.2 ± 0.14 s⁻¹ and a kcat/Km [1] of 1700 M⁻¹ s⁻¹. It also gave a Km [2] of 3.7 ± 1.0 mM, a kcat [2] of 1.4 ± 0.13 s⁻¹ and a kcat/Km [2] of 380 M⁻¹ s⁻¹. For the same substance, the Km [3] was 17 ± 4.9 mM, the Km [4] was 3.0 ± 0.24 mM and the kcat [4] was 25 ± 1.2 s⁻¹. The kcat/Km [4] was 8300 M⁻¹ s⁻¹.
